Assay results reported in article PMC6098011 (2018).
Primed or numbered codes have the meaning given here. No end group written: not given here. FITC′ = fluorescein isothiocyanate label

T1: FEEED (Homo sapiens, not fully specified)
T1 chain: H-FEEED

B1: MBP-fused PB1-ZZ of p62 (residues 1-181) wild type (domain or fragment)
chain: not shown

Key:
FEEED = biological target: T1, FEEED; assay: FP; pH 8.0
[1] = biological target: Flag-ZZ (ZZ-domain of p62 with the flag-tag) (human); assay: FP; pH 6.0
Chain of Flag-ZZ (ZZ-domain of p62 with the flag-tag) (human) (chain, as listed by the source): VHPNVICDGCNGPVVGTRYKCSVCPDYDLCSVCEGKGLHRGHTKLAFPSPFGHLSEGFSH

[2] = biological target: B1; assay: FP; pH 8.0

Binder | Kd [2] [µM] | further results
B1 | – | Kd (FEEED): 169 µM
REEEDK-{FITC′} [R-BiP peptide (REEEDK–FITC)] | – | Kd [1]: > 400 µM
KEEEDK (also: FITC-labeled, site not given here) [FITC-labeled N-degron peptide with lysine at the primary position] | 113 | –
WEEEDK (also: FITC-labeled (site not given here)) [FITC-labeled N-degron peptide with tryptophan at the primary position] | 82 | –
YEEEDK (also: FITC-labeled (site not given here)) [FITC-labeled N-degron peptide with tyrosine at the primary position] | 68 | –
